Tests used:
[1] = test system: corrosion tubercles on steel coupons; assay: Dose-response of lactonase for inhibiting biocorrosion, 7 weeks
Description: Five treatments with lactonase enzyme and two controls of the steel coupons were investigated for enzyme activity and corrosion rate. Each treatment or control contained three replicate steel coupons. They were exposed in lake water in lab microcosm for a period of 7 weeks. Lactonase enzyme silica gel coated testing coupon are prepared as described before, except the coupons were dipped and dried twice and covered with 2 layers of the same coating to ensure the intactness of the coating. The enzyme concentrations used in this experiment were 100, 200, 500, 1000 μg/ml. Also 100 μg/ml equivalent activity lactonase raw extract was tested to compare the effectiveness of raw enzyme extract to the purified lactonase enzyme.
After 7 weeks of exposure, coupons were retrieved and analyzed. The coupons in each treatment was photographed by the end of the experiment. Biocorrosion was evaluated by quantities and coverage of corrosion tubercle. Surface roughness measurement were also made with procedure described above.

[2] = Lactonase assay (pH indicator, cresol purple), kinetic measurements; type: biochemical; settings: AHL acyl chain length
Description: Kinetic measurements. The determination of GcL catalytic efficiency was performed by using a microplate reader (Synergy HTX, BioTek, USA) and the software Gen5.1 over a range of substrates (FIG. 2). The reactions were operate in a 96-well plate at a path length of 5.8 mm for a 200 μl reaction volume at room temperature. The catalytic parameters were achieved by fitting the data to Michaelis-Menten equation with the Graph-Pad Prism 5 software. When, Vmax was not reached, the catalytic efficiency was determined by fitting the linear part of Michaelis-Menten plot to a linear regression using Graph-Pad Prism 5.
Lactonase assay. The AHL lactonolysis consisting in the opening of the lactone ring generates a proton, and leads to an acidification of the media. This property allowed the characterization of the lactonases by using a pH indicator assay. To perform the experiment 5 μl of enzyme were added to a solution containing 10 μl of substrates at various concentrations and 185 μl of lactonase buffer (2.5 mM Bicine pH 8.3, 150 mM NaCl, 0.2 mM CoCl2, 0.2 mM cresol purple, 0.5% DMSO). This assay was performed at 25° C. and the time course of the lactones hydrolysis was recorded at 577 nm. The characterization of the enzyme was proceeding against a large panel of AHLs: C4-AHL, C6-AHL, C8-AHL, C10-AHL, 3-oxo-C8-AHL and against γ-Butyrolactone, γ-Heptalactone, γ-Nonalactone, γ-Decanolactone, δ-Valerolactone, δ-Octanolactone, δ-Nonalactone, δ-Decalactone, ε-Caprolactone, ε-Decalactone, Whiskey lactone.

soil bacterial community = assay: Different lactonases on soil microbial community (Example 8); type: cell-based; settings: 7 days, vs inactive SsoPox 5A8
Description: Principal component analysis (PCA) based on deep bacterial 16S rDNA sequences (Illumina V4 region).
The same experiments as described above were performed on the same soil microbial community but with two different lactonases, GcL, and Ssopox W263I. These enzymes differ primarily by their substrate specificity. […] This is important because different bacteria use different AHLs to communicate. Indeed, The structure of AHLs vary a lot with respect to the length of N-acyl chains (from C4 to C18), the hydroxyl or oxo group of the acyl chain and the saturated or unsaturated state of the carbon chain^1. The hydrophobicity of AHLs relates to their passive diffusion through membranes. […] In fact, regulatory circuits may be interconnected, like in P. aeruginosa^6, and allow for compensatory responses: if the LasI/LasR system is inactivated, the RhlI/RhlR system can still control LasI/LasR-spectific functions^7.

[3] = test system: bacterial communities at the surface of the steel; assay: 16S rDNA analysis of microbial community on steel coupons; settings: treated coupons
Description: After photo imaging, on each of the coupon surface, all material including biofilm and tubercles were scraped into a sterile 50 ml polypropylene centrifuge tube (Corning, N.Y., USA) using a steel scraper. A 0.5 g subsample of the surface material from each coupon sample was used for DNA extraction using PowerSoil DNA kit (MoBio Laboratories). The extracted DNA was used to sequence the V4 region of 16S rDNA gene and describe changes in the composition of bacterial communities. DNA samples were quantified with a NanoDrop 2000 Spectrophotometer (Thermo Scientific, Waltham, Mass. USA) and then sent overnight to the University of Minnesota Genomics Center for 16S rDNA sequencing. 30 samples were multiplexed into a single run of Illumina MiSeq paired-end 300 cycles, which was expected to generate a total of 15 million sequences of the 254 bp portions of the 16S rDNA V4 region.
Sequence data were processed and analyzed using the MOTHUR program. To ensure high quality data for analysis, sequence reads containing ambiguous bases, homopolymers >7 bp, more than one mismatch in the primer sequence, or an average per base quality score below 25 were removed. Sequences that only appear once in the total set were assumed to be a result of sequencing error and removed from the analysis. Chimeric sequences were also removed using the UCHIME algorithm within the MOTHUR program. […]

[4] = all concentrations 100-1000 μg/ml, 7 weeks, p<0.05

B1: SsoPox W263I: improved variant of the hyperthermostable lactonase SsoPox from Sulfolobus solfataricus, exhibiting higher catalytic rates (protein, UniProt Q97VT7 1-314, looked up, variant W263I)
Aryldialkylphosphatase: MRIPLVGKDSIESKDIGFTLIHEHLRVFSEAVRQQWPHLYNEDEEFRNAVNEVKRAMQFGVKTIVDPTVMGLGRDIRFMEKVVKATGINLVAGTGIYIYIDLPFYFLNRSIDEIADLFIHDIKEGIQGTLNKAGFVKIAADEPGITKDVEKVIRAAAIANKETKVPIITHSNAHNNTGLEQQRILTEEGVDPGKILIGHLGDTDNIDYIKKIADKGSFIGLDRYGLDLFLPVDKRNETTLRLIKDGYSDKIMISHDYCCTIDIGTAKPEYKPKLAPRWSITLIFEDTIPFLKRNGVNEEVIATIFKENPKKFFS
In the case of B1, the “reduction of number of corrosion tubercles” value [1, 4] is reported as > 38%, the “reduction of percent coverage of corrosion tubercles” value [1, 4] is reported as > 41% and the “reduction of surface roughness” value ([1]; all treatments) is reported as “not statistically significant”. The “optimal concentration for coating application” value ([1]; highest reduction of corrosion tubercles) was 200 µg/mL, the substrate specificity [2] was “not capable of degrading short chain AHLs” and the “planktonic microbial community composition” value (soil bacterial community) was “induce differential planktonic microbial community biases”. The “abundance of Burkholderiales, Pseudomonadales and Rhodospirillales” value [3] was “significantly reduced”.
